Data set [1] deals with SARS-CoV-2 nsp7-8-His6 precursor (SARS-CoV-2). Put plainly: native MS.
In data set [2] the target is PEDV nsp7-8-His6 precursor (PEDV (strain CV777)).
Data set [3] addresses SARS-CoV nsp7-8-His6 precursor (SARS-CoV (strain Frankfurt-1)). Put plainly: native MS.
Data set [4] concerns the target HCoV-229E nsp7-8-His6 precursor (HCoV-229E). Put plainly: native MS.
The data set “native MS” concerns the molecule itself. Put plainly: native MS.

Substitutions are numbered along the chain they refer to.

In the case of “SARS-CoV-2 nsp7-8-His6 precursor (domain or fragment)”, the stoichiometry N in data set [1] worked out at 2.

Consider “PEDV nsp7-8-His6 precursor (domain or fragment)”, for which the stoichiometry N in data set [2] turned out to be 2.

In data set [3], “SARS-CoV nsp7-8-His6 precursor (domain or fragment)” had a stoichiometry N of 2.

In data set [4], “HCoV-229E nsp7-8-His6 precursor (domain or fragment)” gave a stoichiometry N of 2.

B1: PEDV nsp7 (natural protein)
chain: SKLTDIKCSNVVLLGCLSSMNVSANSTEWAYCVDLHNKINLCNDPEKAQEMLLALLAFFLSKNSAFGLDDLLESYFNDNSMLQ
With B1, the “stoichiometry N” value in “native MS” was 2.

B2: FIPV nsp7 (natural protein)
chain: SKLTEMKCTNVVLLGLLSKMHVESNSKEWNYCVGLHNEINLCDDPDAVLEKLLALIAFFLSKHNTCDLSDLIESYFENTTILQ
notes: also called feline CoV nsp7
As to B2, the “stoichiometry N” value in “native MS” worked out at 2.

B3: TGEV nsp7 (natural protein)
chain: B2 chain with D46E, A47I, D70E
B3: in the data set “native MS”, the “stoichiometry N” value was determined as 2.

B4: HCoV-229E nsp7 (natural protein)
chain: SKLTDLKCTNVVLMGILSNMNIASNSKEWAYCVEMHNKINLCDDPETAQELLLALLAFFLSKHSDFGLGDLVDSYFENDSILQ
For B4, the “stoichiometry N” value in “native MS” amounted to 2.

B5: MERS-CoV nsp7 (natural protein)
chain: SKLTDLKCTSVVLLSVLQQLHLEANSRAWAFCVKCHNDILAATDPSEAFEKFVSLFATLMTFSGNVDLDALASDIFDTPSVLQ
As for B5, in “native MS”, the “stoichiometry N” value was determined as 2.

These data come from publication PMC7929516, “Hallmarks of Alpha- and Betacoronavirus non-structural protein 7+8 complexes” (Science Advances, 2021).
